Patent US20210363269A1 (ALX ONCOLOGY, published 2021)
Substitutions are numbered along the chain they refer to. Names may count otherwise.

T1: cynomolgus SIRP-α D1 domain (cyno2) (cynomolgus monkey, UniProt Q5TFQ8 30-148 (human entry), limits assumed)
T1 chain: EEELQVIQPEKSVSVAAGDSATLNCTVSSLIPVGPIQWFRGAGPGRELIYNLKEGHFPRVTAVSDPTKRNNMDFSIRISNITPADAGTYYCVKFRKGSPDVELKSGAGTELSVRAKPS

T2: high affinity SIRP-α D1 variant CV1-3
T2 chain: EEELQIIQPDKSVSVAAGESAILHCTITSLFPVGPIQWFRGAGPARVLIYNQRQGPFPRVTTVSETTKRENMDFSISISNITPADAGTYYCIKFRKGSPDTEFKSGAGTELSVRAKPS

T3: cynomolgus SIRP-α D1 domain (cyno1) (cynomolgus monkey, UniProt Q5TFQ8 30-148 (human entry), limits assumed)
T3 chain: T1 chain with D19E, V27A, S28T, A42V, N51H, L52Q, A62P

T4: NOD mouse SIRP-α D1 domain (mouse (NOD strain))
T4 chain: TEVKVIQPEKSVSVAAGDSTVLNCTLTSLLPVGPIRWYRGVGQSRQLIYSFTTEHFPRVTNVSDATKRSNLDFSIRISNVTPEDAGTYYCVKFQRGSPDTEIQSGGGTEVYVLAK

T5: mouse 129 SIRP-α D1 domain (mouse (129 strain), UniProt P97797 32-150)
T5 construct: also called m129
T5 chain: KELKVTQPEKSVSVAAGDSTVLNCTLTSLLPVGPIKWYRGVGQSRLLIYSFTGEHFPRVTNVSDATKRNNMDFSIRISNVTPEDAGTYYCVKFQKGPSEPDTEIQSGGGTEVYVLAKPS

T6: C57BL/6 mouse SIRP-α D1 domain (mouse (C57BL/6 strain), UniProt P97797 32-148)
T6 sequence: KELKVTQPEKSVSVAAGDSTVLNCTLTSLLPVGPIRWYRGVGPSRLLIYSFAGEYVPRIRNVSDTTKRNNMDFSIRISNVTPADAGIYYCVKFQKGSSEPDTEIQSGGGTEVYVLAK

T7: cynomolgus SIRP-α D1 domain (SEQ ID NO:11) (cynomolgus, UniProt Q5TFQ8 30-148 (human entry), limits assumed)
T7 construct: also called cyno1
T7 chain: T1 chain with D19E, V27A, S28T, A42V, N51H, L52Q, A62P

B1: S191 (scFv, V domains shown)
VH: DVQLVESGGGVVRPGESLRLSCAASGFSFSSYAMNWVRQAPGEGLEWVSRINSGGGGTDYAESVKGRFTISRDNSENTLYLQMNSLRAEDTAVYYCAKQYDWNGFFDYWGLGALVTVSS
VL: ETVLTQSPATLSVSPGERATLSCRASQTVGSKLAWHQQKPGQAPRLLIYDATNRATGIPDRFSGSGSGTDFTLTISGLQTEDSAVYYCQQYYYWPPYRFGGGTKVEIK
notes: also called clone 191
B2: S198 (scFv, V domains shown)
VH: B1 VH with Y32H
VL: B1 VL with G77S
B3: S213 (scFv, V domains shown)
VH: DVQLVESGGGVVRPGESLRLSCEASGFTFRNYYMTWVRQAPGEGLEWVSTISDTGDTAYYADSVKGRFTISRDNSKNSLYLQMNSLRADDTAIYYCAKSWIWWTFFDYWGLGTLVTVSS
VL: ALTQPASVSANLGGTVEITCSGGNSNHYGWYQQKSPGSAPVTLIYADTNRPSNIPSRFSGSTSGSTTTLTITGVQAEDEAVYYCGGSSTGDGIFGAGTTLTVL
notes: also called clone 213
B4: S214 (scFv, V domains shown)
VH: B3 VH with G8E, Y32S, D89E
VL: B3 VL with T67S
B5: S161 (scFv, V domains shown)
VH: DVQLVESGGGVVRPGESLRLSCAASGFTFSNFAMTWVRQAPGKGPEWVSLVSVTATTYYADSVKGRFTISRDNSKSTLYLQMNSLRAEDTAVYYCAKITWNNLFDYWGLGTLVTVSS
VL: EIVLTQSPGTLSLSPGERATLSCRASQTVGSKLAWYQQKPGQAPRLLIYDSSSRASGIPDRFSGSGSGTDFTLTISSLQSEDSAVYYCQQHNDWPPYTFGGGTKVEIK
notes: scFv-Fc format (VL-linker-VH on human IgG1 Fc)
B6: 135 wt/wt_M34V (antibody, human IgG1, V domains shown)
VH: DVQLVESGGGVVRPGESLRLSCAASGFSFSIYAVSWVRQAPGEGLEWVSTIGADDTYYADSVKGRFTISRDNSKNTLYLQMNSLRAEDTAVYYCAKDSTVGWSGDFFDYWGLGTLVTVSS
VL: EIVLTQSPATLSVSPGERVTFSCRASQNVRSDIAWYQQKPGQAPRLLIYAASSRDTGIPDRFSGSGSGTDFTLTISSLQSEDFGVYYCQQYYDWPPFTFGGGTKVEIK
notes: human IgG1 with L234A, L235A, G237A, N297A
B7: 119 wt/wt_M34V (antibody, human IgG1, V domains shown)
VH: B6 VH with V5L, R13Q, E16G, I31N, Y32F, S35T, A53S, D54G, G101S
VL: EIVLTQSPATLSVSPGERATFSCRASQNVKNDLAWYQQRPGQAPRLLIYAARIRETGIPERFSGSGSGTEFTLTITSLQSEDFAVYYCQQYYDWPPFTFGGGTKVEIK
notes: as for B6
B8: 135 wt/wt_M34L (antibody, human IgG1, V domains shown)
VH: B6 VH with V34L
VL: B6 VL
notes: as for B6
B9: 119 wt/wt_M34L (antibody, human IgG1, V domains shown)
VH: B6 VH with V5L, R13Q, E16G, I31N, Y32F, V34L, S35T, A53S, D54G, G101S
VL: B7 VL
notes: as for B6
B10: antibody 135 variant mut/mut (antibody, human IgG1, V domains shown)
VH: B6 VH with D1E, R13Q, E16G, E43K, L112Q
VL: B6 VL with F21L, D60A
notes: Human IgG1 with L234A/L235A/G237A/N297A; Labels are in the order VL/VH
B11: antibody 135 variant wt/mut (antibody, human IgG1, V domains shown)
VH: B6 VH with D1E, R13Q, E16G, E43K, L112Q
VL: B6 VL
notes: as for B10
B12: antibody 135 variant mut/wt (antibody, human IgG1, V domains shown)
VH: B6 VH with V34M
VL: B6 VL with F21L, D60A
notes: as for B10
B13: antibody 135 wt/wt (parental) (antibody, human IgG1, V domains shown)
VH: B6 VH with V34M
VL: B6 VL
notes: Human IgG1 with L234A/L235A/G237A/N297A; Labels are in the order VL/VH; also called AB135a

Molecular target: T1, cynomolgus SIRP-α D1 domain (cyno2)
Assay: SPR, Langmuir fit
In short: (§1)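 Pre-filtered culture media supplied the scFv-Fc antibody clones, which were captured by anti-human IgG Fc amine-coupled (about 4000 RU) to a GLC chip on a ProteOn XPR36. SIRP analytes were flowed in PBS pH 7.4 with 0.01% Tween-20 at 25° C. Interspot and buffer-blank responses were subtracted from the data, which were then fitted to a 1:1 Langmuir model. Dissociation rate constants (koff) were derived from this fitting.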

Binder	koff [s⁻¹]
B1	1.38e-05
B2	7.73e-05
B3	0.00313
B4	0.00271
B5	0.00215

molecular target: T8, human SIRP-α v1 D1 domain (human, UniProt P78324 31-149); assay: SPR, Langmuir fit
T8 construct: also called human v1
In short: as §1
T8 sequence (P78324 31-149 limits assumed): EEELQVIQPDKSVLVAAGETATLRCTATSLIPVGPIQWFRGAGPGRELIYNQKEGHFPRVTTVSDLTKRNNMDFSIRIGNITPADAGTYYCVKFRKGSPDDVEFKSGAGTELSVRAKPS

Binder	koff [s⁻¹]
B1	6.67e-05
B2	3.67e-05
B5	0.00337

Molecular target: T2, high affinity SIRP-α D1 variant CV1-3
Assay: SPR, Langmuir fit
In short: as §1

Binder	koff [s⁻¹]
B1	0.000295
B2	0.000787
B3	0.00482
B4	0.00453

molecular target: T9, human SIRPβ isoform 1 (human, UniProt O00241 30-148); assay: SPR, Langmuir fit
T9 construct: also called SIRPb; sirpb1
T9 sequence (O00241 30-148 limits assumed): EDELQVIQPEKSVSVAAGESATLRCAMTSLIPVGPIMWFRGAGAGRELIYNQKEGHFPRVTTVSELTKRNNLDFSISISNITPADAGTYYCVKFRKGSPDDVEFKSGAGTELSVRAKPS
In short: as §1

Binder	koff [s⁻¹]
B1	1.01e-05
B2	4.72e-05
B5	0.00321

Molecular target: T3, cynomolgus SIRP-α D1 domain (cyno1)
Assay: SPR, Langmuir fit
In short: as §1

Binder	koff [s⁻¹]
B1	5.54e-05
B2	8.34e-05
B3	0.0026
B4	0.00351

molecular target: T10, human SIRP-α v2 D1 domain (human); assay: SPR, Langmuir fit
T10 construct: also called human v2
In short: as §1

Binder	koff [s⁻¹]
B1	3.53e-05
B2	4.95e-05
B3	0.000685
B4	0.000677
B5	0.000348

molecular target: T11, human SIRP-α v2 D1 domain (human); assay: SPR, antibody immobilised on GLC chip
T11 construct: biotinylated and captured on avidin in the ELISA; also called human v2
In short: (§2)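 Protein A-purified antibodies were diluted to 80 nM in 10 mM sodium acetate pH 4.5 and amine-coupled (~1000 RU) to a GLC chip of a ProteOn XPR36 biosensor. SIRP analytes were injected one-shot at 100, 33, 11, 3.7, 1.2 and 0 nM in PBS pH 7.4 with 0.01% Tween-20 at 25° C. Association ran 90 s at 100 μL/min and dissociation 1200 s. KD came from double-referenced data fitted globally to a Langmuir model, as kd/ka.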

Binder	binding result
B6	binds
B7	binds
B8	binds
B9	binds

molecular target: T12, human SIRP-α v1 D1 domain (human, UniProt P78324 31-149); assay: SPR, antibody immobilised on GLC chip
T12 construct: biotinylated and captured on avidin in the ELISA; also called human v1
In short: as §2
T12 sequence (P78324 31-149 limits assumed): as the sequence (P78324 31-149 limits assumed) above

Binder	binding result
B6	binds
B7	binds
B8	binds
B9	binds

Molecular target: T4, NOD mouse SIRP-α D1 domain
Assay: SPR
In short: as §1

Binder	binding result
B1	no binding (tested: Koff > 5 × 10^3 (legend))
B2	no binding (tested: Koff > 5 × 10^3 (legend))

Molecular target: T5, mouse 129 SIRP-α D1 domain
Assay: SPR
In short: as §1

Binder	binding result
B1	no binding (tested: Koff > 5 × 10^3 (legend))
B2	no binding (tested: Koff > 5 × 10^3 (legend))
B5	no binding (tested: Koff > 5 × 10^3 (legend))

molecular target: T6, C57BL/6 mouse SIRP-α D1 domain; assay: SPR
In short: as §1

Binder	binding result
B1	no binding (tested: Koff > 5 × 10^3 (legend))
B2	no binding (tested: Koff > 5 × 10^3 (legend))
B3	no binding (tested: Koff > 5 × 10^3 (legend))
B4	no binding (tested: Koff > 5 × 10^3 (legend))
B5	no binding (tested: Koff > 5 × 10^3 (legend))

molecular target: T13, human SIRPγ isoform 1 (human, UniProt Q9P1W8 29-147); assay: SPR
T13 construct: also called SIRPg; sirpg
In short: as §1
T13 sequence (Q9P1W8 29-147 limits assumed): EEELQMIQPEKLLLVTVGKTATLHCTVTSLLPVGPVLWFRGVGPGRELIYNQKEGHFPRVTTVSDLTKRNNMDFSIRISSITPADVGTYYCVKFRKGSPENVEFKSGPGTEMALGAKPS

Binder	binding result
B5	no binding (tested: Koff > 5 × 10^3 (legend))

molecular target: T9, human SIRPβ isoform 1; assay: SPR
In short: as §1

Binder	binding result
B3	no binding (tested: Koff > 5 × 10^3 (legend))
B4	no binding (tested: Koff > 5 × 10^3 (legend))

molecular target: T14, human SIRP-α v2 D1 domain (human); assay: SPR, antibody immobilised on GLC chip
T14 construct: also called human v2; human α v2
Experimental: (§3) All experiments were performed at 25° C. using a SPR-based ProteOn XPR36 biosensor (BioRad, Inc, Hercules, Calif.) equipped with GLC or NLC sensor chips. […] Purification was carried out by standard Protein A affinity column chromatography and eluted antibodies were stored in PBS buffer.
(§4) For the method using GLC chip, the analytes were injected and flowed over anti-SIRPα antibodies immobilized (˜1000 RUs) on GLC chips using Proteon™ Amine Coupling Kit. For the immobilization step, GLC chip was activated with EDAC/Sulpho-NHS 1:1 (Biorad) diluted 1/100 for 300 s at 25 μL/min. Anti-SIRPα antibodies were diluted to 80 nM concentration in 10 mM sodium acetate buffer pH 4.5 and immobilized to the chip at 30 μL/min for 50 s. Chip was inactivated with ethanolamine for 300 s at 25 μL/min. The analytes (e.g., SIRP-α from different species, SIRP-β, SIRP-γ) were injected in a “one-shot” kinetic mode at nominal concentrations of 100, 33, 11, 3.7, 1.2 and 0 nM. Association times were monitored for 90 s at 100 μL/min, and dissociation times were monitored for 1200 s. The surfaces were regenerated with a 2:1 v/v blend of Pierce IgG elution buffer/4M NaCl.
T14 sequence (chain, as listed by the source limits assumed): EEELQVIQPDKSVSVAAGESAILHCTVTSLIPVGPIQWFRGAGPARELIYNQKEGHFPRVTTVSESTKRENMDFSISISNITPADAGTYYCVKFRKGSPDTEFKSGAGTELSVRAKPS

Binder	Kd [nM]
B10	0.0175
B11	0.0197
B12	0.0266
B13	0.029

Molecular target: T7, cynomolgus SIRP-α D1 domain (SEQ ID …)
Assay: SPR, antibody immobilised on GLC chip
Experimental: as §3, §4

Binder	Kd [nM]
B10	0.127
B11	0.125
B12	0.102
B13	0.0969

molecular target: T15, human SIRP-α v1 D1 domain (human, UniProt P78324 31-149); assay: SPR, antibody immobilised on GLC chip
T15 construct: also called human v1; human α v1
Experimental: as §3, §4
T15 sequence (P78324 31-149 limits assumed): as the sequence (P78324 31-149 limits assumed) above

Binder	Kd [nM]
B10	0.192
B11	0.184
B12	0.149
B13	0.151

molecular target: T16, human SIRPγ isoform 1 (human, UniProt Q9P1W8 29-147); assay: SPR, antibody immobilised on GLC chip
T16 construct: also called sirpg; sirp-g
Experimental: as §3, §4
T16 sequence (Q9P1W8 29-147 limits assumed): as the sequence (Q9P1W8 29-147 limits assumed) above

Binder	Kd [nM]
B10	0.733
B11	0.779
B12	0.522
B13	0.539
